# Data taken from US20240360242A1 (KISOJI BIOTECHNOLOGY, published 2024).
# Substitutions are numbered along the chain they refer to.
# T1: HEK-TROP2 Δ27-104 (human, UniProt P09758)
# T1 sequence (membrane protein on transfected HEK cells, looked up): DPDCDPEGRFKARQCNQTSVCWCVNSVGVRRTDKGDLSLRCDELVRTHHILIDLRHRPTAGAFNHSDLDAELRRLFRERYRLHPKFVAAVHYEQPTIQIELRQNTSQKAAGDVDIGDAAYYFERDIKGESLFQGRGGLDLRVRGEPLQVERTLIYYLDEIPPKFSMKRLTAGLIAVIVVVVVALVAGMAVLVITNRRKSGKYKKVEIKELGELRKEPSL
# T2: HEK-TROP2 Δ27-85 (human, UniProt P09758)
# T2 construct: deletion of residues 27-85, transiently expressed on HEK cells
# T2 sequence (membrane protein on transfected HEK cells, looked up): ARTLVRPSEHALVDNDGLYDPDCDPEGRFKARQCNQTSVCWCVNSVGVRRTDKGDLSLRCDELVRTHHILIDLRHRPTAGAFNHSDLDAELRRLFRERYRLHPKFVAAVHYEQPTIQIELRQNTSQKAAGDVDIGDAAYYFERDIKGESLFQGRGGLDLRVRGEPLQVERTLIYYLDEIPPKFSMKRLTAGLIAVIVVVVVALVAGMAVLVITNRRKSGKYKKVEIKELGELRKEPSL
# T3: HEK-TROP2 Δ27-44
# T3 construct: also called TROP2 delta 27-44
# T3 membrane protein on transfected HEK cells: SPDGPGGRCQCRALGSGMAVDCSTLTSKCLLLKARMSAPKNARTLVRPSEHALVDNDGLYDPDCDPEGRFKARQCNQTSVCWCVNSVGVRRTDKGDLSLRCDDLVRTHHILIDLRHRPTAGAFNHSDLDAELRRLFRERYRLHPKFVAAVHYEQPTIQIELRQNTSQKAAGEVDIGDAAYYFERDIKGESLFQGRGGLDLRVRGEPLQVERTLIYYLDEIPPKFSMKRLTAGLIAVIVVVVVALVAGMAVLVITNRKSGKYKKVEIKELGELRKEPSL
# T4: HEK-TROP2 Δ27-73 (human, UniProt P09758)
# T4 construct: deletion of residues 27-73, transiently expressed on HEK cells
# T4 sequence (membrane protein on transfected HEK cells, looked up): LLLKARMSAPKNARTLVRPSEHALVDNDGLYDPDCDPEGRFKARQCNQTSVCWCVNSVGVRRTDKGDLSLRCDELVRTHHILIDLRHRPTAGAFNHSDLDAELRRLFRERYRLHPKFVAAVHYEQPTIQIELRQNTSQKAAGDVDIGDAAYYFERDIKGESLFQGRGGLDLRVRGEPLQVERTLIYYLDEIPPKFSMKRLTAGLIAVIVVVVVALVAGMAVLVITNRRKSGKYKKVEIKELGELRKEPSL
# T5: HEK-TROP2 Δ27-126 (human, UniProt P09758)
# T5 construct: deletion of residues 27-126, transiently expressed on HEK cells
# T5 sequence (membrane protein on transfected HEK cells, looked up): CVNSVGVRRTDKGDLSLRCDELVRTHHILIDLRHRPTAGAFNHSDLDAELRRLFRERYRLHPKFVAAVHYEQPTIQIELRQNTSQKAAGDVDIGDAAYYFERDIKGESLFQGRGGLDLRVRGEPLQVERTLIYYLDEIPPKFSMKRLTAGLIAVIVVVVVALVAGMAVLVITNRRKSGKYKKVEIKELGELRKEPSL
# T6: TROP2 delta 27-56 on HEK cells (human, UniProt P09758 1-323)
# T6 construct: Human TROP2 with residues 27-56 deleted, transiently transfected into HEK cells; also called TROP2 with 27-56 regions truncated
# T6 chain: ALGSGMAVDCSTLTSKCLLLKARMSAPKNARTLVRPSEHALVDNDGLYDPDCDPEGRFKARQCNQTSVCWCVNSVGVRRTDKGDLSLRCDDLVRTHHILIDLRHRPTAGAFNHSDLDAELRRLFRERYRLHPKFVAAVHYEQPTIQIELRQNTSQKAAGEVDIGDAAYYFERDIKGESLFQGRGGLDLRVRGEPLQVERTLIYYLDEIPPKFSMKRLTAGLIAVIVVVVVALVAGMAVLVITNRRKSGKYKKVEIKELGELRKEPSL
# T7: HEK-TROP2 Δ27-114 (human, UniProt P09758)
# T7 construct: deletion of residues 27-114, transiently expressed on HEK cells
# T7 sequence (membrane protein on transfected HEK cells, looked up): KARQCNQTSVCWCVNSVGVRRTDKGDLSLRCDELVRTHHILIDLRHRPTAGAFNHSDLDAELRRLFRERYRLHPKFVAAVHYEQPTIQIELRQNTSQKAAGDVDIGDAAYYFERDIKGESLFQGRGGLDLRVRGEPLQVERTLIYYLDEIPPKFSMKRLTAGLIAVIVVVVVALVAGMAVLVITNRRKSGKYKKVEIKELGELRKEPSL
# B1: KD007 (antibody, human IgG1, V domains shown)
# VH: QVQLQESGGGLVQPGGSLRLSCAASGFAFSFYAMAWYRQAPGKQRDMVATITAYGNTNYADSVKGRFTTSRDNAKNTVYLQMNSLKPEDTAVYVCNANLPSASHNYWGQGTQVTVSS
# notes: also called anti-TROP2 sdAb KD007
# B2: KD001 (antibody, human IgG1, V domains shown)
# VH: QVQLQESGGGMVHPGGSLRLSCAASGFTFSGSDMSWVRQAPGKGPEWVSYITSGGTTYYPDSVKGRFTISRDNAKNTLYLQMNSLTPDDTALYRCAKARLTDSHYVEDAWGQGTQVTVSS
# notes: also called anti-TROP2 sdAb KD001
# B3: KD004 (antibody, human IgG1, V domains shown)
# VH: B2 VH with M11L, H13Q, G16R, S53G, G54S, I69T, T77M, T86K
# notes: also called anti-TROP2 sdAb KD004
# B4: KD005 (antibody, human IgG1, V domains shown)
# VH: B2 VH with M11L, H13E, P14A, T86K, A98S
# notes: also called anti-TROP2 sdAb KD005
# B5: KD002 (antibody, human IgG1, V domains shown)
# VH: QVQLQESGGGMVQVGGSLRLSCAASGFPFSSADMSWVRQAPGKGPEWVSYINADGSKTYYPDSVKGRFTISRDNAKNTLYLLMNNLKPEDTALYRCARAKLTDTHYVEDYWGQGTQVTVSS
# notes: also called anti-TROP2 sdAb KD002
# B6: KD003 (antibody, human IgG1, V domains shown)
# VH: B5 VH with V14P, P28T, S31N, A32Y, D54G, K57N, Y59D, T78M
# notes: also called anti-TROP2 sdAb KD003
# Target: T1, HEK-TROP2 Δ27-104
# Test: flow cytometry, 100 nM antibody, transiently transfected HEK cells, APC anti-human Fc
# Method: (§1) To determine the effect of TROP2 truncations on the binding ability of anti-TROP2 sdAbs, the HEK parental cells were transiently transfected with human TROP2 mutants by lipofectamine. 24 hours after transfection, cells were collected and stained with anti-TROP2 antibodies (FIG. 13A and FIG. 13B). In brief, 1×10⁵ cells were incubated with an Fc receptor blocking antibody (1/100 dilution) for 10 minutes at room temperature. Anti-TROP2 antibodies were diluted in FACS staining buffer to 100 nM and added and incubated with cells for 30 minutes on ice. After washing three times with FACS staining buffer, APC-conjugated secondary antibodies recognizing the human Fc region (Biolegend, Cat #410712) were mixed with cells. After staining for 30 minutes, cells were washed three times, followed by resuspension into 100 μL of 7-Amino-Actinomycin D (7-AAD) solution (BD Biosciences, Cat #559925).
row,binding result,Binder
1,no binding (tested: 100 nM),B1
2,no binding (tested: 100 nM),B2
3,no binding (tested: 100 nM),B3
4,no binding (tested: 100 nM),B4
5,no binding (tested: 100 nM),B5
6,no binding (tested: 100 nM),B6

# Target: T2, HEK-TROP2 Δ27-85
# Test: as above
# Method: as §1
row,binding result,Binder
1,no binding (tested: 100 nM),B1
2,no binding (tested: 100 nM),B2
3,no binding (tested: 100 nM),B3
4,no binding (tested: 100 nM),B4
5,no binding (tested: 100 nM),B5
6,no binding (tested: 100 nM),B6

# Target: T3, HEK-TROP2 Δ27-44
# Test: as above
# Method: as §1
row,binding result,Binder
1,no binding (tested: 100 nM),B1
2,binds,B2
3,binds,B3
4,binds,B4
5,binds,B5
6,binds,B6

# Target: T4, HEK-TROP2 Δ27-73
# Test: as above
# Method: as §1
row,binding result,Binder
1,no binding (tested: 100 nM),B1
2,no binding (tested: 100 nM),B2
3,no binding (tested: 100 nM),B3
4,no binding (tested: 100 nM),B4
5,no binding (tested: 100 nM),B5
6,no binding (tested: 100 nM),B6

# Target: T5, HEK-TROP2 Δ27-126
# Test: as above
# Method: as §1
row,binding result,Binder
1,no binding (tested: 100 nM),B1
2,no binding (tested: 100 nM),B2
3,no binding (tested: 100 nM),B3
4,no binding (tested: 100 nM),B4
5,no binding (tested: 100 nM),B5
6,no binding (tested: 100 nM),B6

# Target: T6, TROP2 delta 27-56 on HEK cells
# Test: as above
# Method: as §1
row,binding result,Binder
1,no binding (tested: 100 nM),B1
2,no binding (tested: 100 nM),B2
3,no binding (tested: 100 nM),B3
4,no binding (tested: 100 nM),B4
5,no binding (tested: 100 nM),B5
6,no binding (tested: 100 nM),B6

# Target: T7, HEK-TROP2 Δ27-114
# Test: as above
# Method: as §1
row,binding result,Binder
1,no binding (tested: 100 nM),B1
2,no binding (tested: 100 nM),B2
3,no binding (tested: 100 nM),B3
4,no binding (tested: 100 nM),B4
5,no binding (tested: 100 nM),B5
6,no binding (tested: 100 nM),B6
